# Measurements from article PMC7116892 (Science (New York, N.Y.), 2021).
# Legend:
# [1] = target: Dyh5 (γ-HC), ODA heavy chain (Tetrahymena thermophila, UniProt I7M6H4 1-4168); experiment: cryo-EM structure
# [2] = target: Dyh3 (α-HC), ODA heavy chain (Tetrahymena thermophila, UniProt Q22A67 1-4620); experiment: cryo-EM structure
binder,measurement,setting,value
"Shulin (Q22YU3), recombinant full-length, C-terminal 2xStrep (natural protein, Tetrahymena thermophila, UniProt Q22YU3 1-1200, looked up) MFNFFSSANINQNIPKYSVNDFVFRLKKIEKIVVKEGLDGFLLINGVDSRENTEYVKLTNWLFLGNSGLEIEENEYLNQIYSDMIVLIKKGTTHIFIDPEALNSLQTLIYSIPNVDVFCPTEKQYEDKDEMELLKMAFFLRVMKPTKKVGILLGQKDKGKINSIEKWPLIQSYGLEELGVGFFSMNHEVVDLTLRLNAVYKNYDKFFVSKLIYVVAKRLTGHFNSAAGQLGDMKMHKRNLATESQLTEIFRDTYEIEEISKWVQIRGVNAALPKPRVLFGKNTSADCSKEPSVAPLKDLKYSETFHSFHATFETFDLRTCLRAARTYFLAKGVKEERNLITLNDDEGVPQGYELNIDENQQYKDQDFLANLYLSIIIGFNEVMQLITKDYKNMTEEFIQDYIFQKVSKVYAGFQIPESEITLDKIQIILKAYNSFGEEVKIDFKDTISFKLTPYFFMVRIEQKNIKSQILNNTVLGSLVFAESFILQEGCYLLLTKEIPYFDLWNCQNDYSEKIEKMKKRILWEPLGKQISDELPKNRIFVQTGRKSNYGFDIPIMQASYYMHELGLRIETQRLGWFILFFKEMKEIQITQKMNHTWLIFKVDSNITFNSISKDTIALEFTGDALEQSFFKIKNYFEENQIKYEYQVDIPAIFQESQIAKKQILNQQSQGQKLITMNSIQNEQFFISYIESKQLMILNQMKDLKLSAYKNLYEQMQISQAITPVENHIGVILVNGSYCSGKRKFAENLIRFGSDNNLRLHLYKFDLNEMSELTEKSYLSGLLKFASEKKIQNTDVIVASVPHFINTKILIDYFSKSEKISNAFYIRTIATKININNIYSNFNKNPVNNVFTYGVEGYSQFLLLDTYNNYDADVNALNKTLSGVLPGAKIYKIMNNILNPALAKDILTSITFISEQNNLNRLKYSVQYDLLTSNGPSSVVFIPFKLPILREKIRDLIYKKILQNGNQTLVDTIEAEQKIAEFKELNKNSKDPLMIEIIKLKEKIEIQNAQTSDQAIKIDYVKGILRYDSKLKEGLEEITITPNYFIERTVKGVDAKEFTEELNGVSFKNVKYTGITNSIINDMGFVFAGKNLNKEKLLELLYKLVKPLNKQKLRQRKDLTEEEIVDIQFRNRGEGLENGEFYDGQFWRNIQGLILPHHPKKDEFIEEYLKQEEVRINQINEQLQQEWETWKQVYDKIHLDK",binding result,[1],binds
same,binding result,[2],binds
